Patent US10925971B2, “Methods of treating PRLR positive breast cancer” (Regeneron Pharmaceuticals, Inc., priority 2016, dated 2021)

Target: T1, hPRLR-mmH (SEQ ID NO:406) (Homo sapiens, UniProt P16471)
T1 construct: this experiment was conducted with a truncated form of PRLR (i.e., hPRLR-mmH)
Test: Epitope mapping by hydrogen/deuterium exchange with MALDI-TOF MS
Format: binding
Procedure: Experiments were conducted to determine the amino acid residues of PRLR with which H1H6958N2 interacts. For this purpose hydrogen/deuterium (H/D) exchange epitope mapping was carried out. A general description of the H/D exchange method is set forth in e.g., Ehring (1999) Analytical Biochemistry 267(2):252-259; and Engen and Smith (2001) Anal. Chem. 73:256A-265A.
To map the binding epitope(s) of antibody H1H6958N2 on hPRLR via H/D exchange, a construct comprising a recombinant extracellular domain of hPRLR with a C-terminal myc-myc-hexahistidine tag (hPRLR-mmH; SEQ ID NO: SEQ ID NO:406) was buffer exchanged to PBS with a final concentration of 8 mg/mL, and antibody H1H6958N2 was covalently attached to N-hydroxysuccinimide (NHS) agarose beads (GE Lifescience)
In the ‘on-solution/off-beads’ (on-exchange in solution followed by off-exchange on beads) experiment, the hPRLR was deuterated for 5 min or 10 min in PBS buffer prepared with D2O, and then bound to H1H6958N2 beads through a 2 min incubation. The hPRLR-bound beads were washed with PBS aqueous buffer (prepared with H2O) and incubated PBS buffer for half of the on-exchange time. After the off-exchange, the bound hPRLR was eluted from beads with an ice-cold low pH TFA solution. The eluted hPRLR was then digested with immobilized pepsin (Thermo Scientific) for 5 min. The resulting peptides were desalted using ZipTip® chromatographic pipette tips and immediately analyzed by UltrafleXtreme matrix assisted laser desorption ionization time of flight (MALDI-TOF)-TOF mass spectrometry (MS).
In the ‘on-beads/off-beads’ (on-exchange on beads followed by off-exchange on beads) experiment, hPRLR was first bound to H1H6958N2 beads and then incubated for 5 min or 10 min in D2O for on-exchange. The following steps (off-exchange, pepsin digestion, and MS analysis) were carried out as described for the ‘on-solution/off-beads’ procedure. The centroid values or average mass-to-charge ratios (m/z) of all the detected peptides were calculated and compared between these two sets of experiments.
The results are summarized in Table 29 which provides a comparison of the centroid m/z values for all the detected peptides identified by liquid chromatography and MS following the H/D exchange and peptic digest procedure described above. For purposes of the present Example, a positive difference (A) of at least 0.20 m/z in both experiments indicates amino acids protected by antibody binding. Segments meeting this criterion are indicated by bold text and an asterisk (*) in Table 29. [Note that, although this experiment was conducted with a truncated form of PRLR (i.e., hPRLR-mmH; SEQ ID NO: 406), residue numbering in the far left column of Table 29 has been adjusted to correspond to the amino acid sequence of the full-length PRLR protein represented by SEQ ID NO: 404.]

[1] = hPRLR peptide residues 168-180 of SEQ ID NO: 404, Experiment II 10 min on-/5 min off-exchange
[2] = hPRLR peptide residues 169-180 of SEQ ID NO: 404, Experiment I 5 min on-/2.5 min off-exchange
[3] = hPRLR peptide residues 169-180 of SEQ ID NO: 404, Experiment II 10 min on-/5 min off-exchange
[4] = hPRLR peptide residues 170-179 of SEQ ID NO: 404, Experiment I 5 min on-/2.5 min off-exchange
[5] = hPRLR peptide residues 170-179 of SEQ ID NO: 404, Experiment II 10 min on-/5 min off-exchange
[6] = hPRLR peptide residues 170-180 of SEQ ID NO: 404, Experiment I 5 min on-/2.5 min off-exchange
[7] = hPRLR peptide residues 170-180 of SEQ ID NO: 404, Experiment II 10 min on-/5 min off-exchange
[8] = hPRLR peptide residues 191-205 of SEQ ID NO: 404, Experiment I 5 min on-/2.5 min off-exchange
[9] = hPRLR peptide residues 191-205 of SEQ ID NO: 404, Experiment II 10 min on-/5 min off-exchange
[10] = hPRLR peptide residues 192-202 of SEQ ID NO: 404, Experiment I 5 min on-/2.5 min off-exchange
[11] = hPRLR peptide residues 192-202 of SEQ ID NO: 404, Experiment II 10 min on-/5 min off-exchange
[12] = hPRLR peptide residues 192-205 of SEQ ID NO: 404, Experiment I 5 min on-/2.5 min off-exchange
[13] = hPRLR peptide residues 192-205 of SEQ ID NO: 404, Experiment II 10 min on-/5 min off-exchange
[14] = hPRLR peptide residues 206-215 of SEQ ID NO: 404, Experiment I 5 min on-/2.5 min off-exchange
[15] = hPRLR peptide residues 206-215 of SEQ ID NO: 404, Experiment II 10 min on-/5 min off-exchange
[16] = hPRLR peptide residues 206-217 of SEQ ID NO: 404, Experiment I 5 min on-/2.5 min off-exchange
[17] = hPRLR peptide residues 206-217 of SEQ ID NO: 404, Experiment II 10 min on-/5 min off-exchange
[18] = hPRLR peptide residues 206-222 of SEQ ID NO: 404, Experiment I 5 min on-/2.5 min off-exchange
[19] = hPRLR peptide residues 206-222 of SEQ ID NO: 404, Experiment II 10 min on-/5 min off-exchange
[20] = hPRLR peptide residues 236-249 of SEQ ID NO: 404, Experiment I 5 min on-/2.5 min off-exchange
[21] = hPRLR peptide residues 236-249 of SEQ ID NO: 404, Experiment II 10 min on-/5 min off-exchange
[22] = hPRLR peptide residues 238-261 of SEQ ID NO: 404, Experiment I 5 min on-/2.5 min off-exchange
[23] = hPRLR peptide residues 238-261 of SEQ ID NO: 404, Experiment II 10 min on-/5 min off-exchange
[24] = hPRLR peptide residues 241-261 of SEQ ID NO: 404, Experiment I 5 min on-/2.5 min off-exchange
[25] = hPRLR peptide residues 241-261 of SEQ ID NO: 404, Experiment II 10 min on-/5 min off-exchange
[26] = hPRLR peptide residues 250-261 of SEQ ID NO: 404, Experiment I 5 min on-/2.5 min off-exchange
[27] = hPRLR peptide residues 250-261 of SEQ ID NO: 404, Experiment II 10 min on-/5 min off-exchange

T1 sequence (P16471 with tags, fused parts or gaps): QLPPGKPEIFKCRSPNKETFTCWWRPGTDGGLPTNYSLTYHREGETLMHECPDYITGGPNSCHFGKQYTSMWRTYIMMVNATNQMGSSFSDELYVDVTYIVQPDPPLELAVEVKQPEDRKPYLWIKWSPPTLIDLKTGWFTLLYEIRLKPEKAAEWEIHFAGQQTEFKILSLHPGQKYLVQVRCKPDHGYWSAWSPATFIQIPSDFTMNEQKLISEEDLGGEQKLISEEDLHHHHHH

B1: H1H6958N2: anti-PRLR antibody, receptor blocking, human IgG1 Fc form of H2M6958N2 of Table 1; HCVR/LCVR SEQ ID NOs 290/298 (antibody, V domains shown)
VH: QVQLVESGGGVVQPGRSLRLSCGASGFTFRNYGMQWVRQGPGKGLEWVTLISFDGNDKYYADSVKGRFTISRDNSKNTLFLQMNSLRTEDTAVYYCARGGDFDYWGQGTLVTVSS
VL: DIQMTQSPSSLSASVGDRVTITCRASQDIRKDLGWYQQKPGKAPKRLIYAASSLHSGVPSRFSGSGSGTEFTLTISSLQPEDFATYYCLQHNSYPMYTFGQGTKLEIK
Δ (centroid m/z difference) (hPRLR peptide residues 168-180 of SEQ ID NO: 404, Experiment I 5 min on-/2.5 min off-exchange): −0.06 m/z
centroid m/z, on-beads/off-beads [1]: 1633.64 m/z
centroid m/z, on-solution/off beads [1]: 1633.71 m/z
Δ (centroid m/z difference) [1]: 0.08 m/z
centroid m/z, on-beads/off-beads [2]: 1469.86 m/z
centroid m/z, on-solution/off beads [2]: 1469.67 m/z
Δ (centroid m/z difference) [2]: −0.19 m/z
centroid m/z, on-beads/off-beads [3]: 1469.67 m/z
centroid m/z, on-solution/off beads [3]: 1469.71 m/z
Δ (centroid m/z difference) [3]: 0.04 m/z
centroid m/z, on-beads/off-beads [4]: 1155.35 m/z
centroid m/z, on-solution/off beads [4]: 1155.40 m/z
Δ (centroid m/z difference) [4]: 0.05 m/z
centroid m/z, on-beads/off-beads [5]: 1155.39 m/z
centroid m/z, on-solution/off beads [5]: 1155.40 m/z
Δ (centroid m/z difference) [5]: 0.01 m/z
centroid m/z, on-beads/off-beads [6]: 1341.66 m/z
centroid m/z, on-solution/off beads [6]: 1341.62 m/z
Δ (centroid m/z difference) [6]: −0.04 m/z
centroid m/z, on-beads/off-beads [7]: 1341.34 m/z
centroid m/z, on-solution/off beads [7]: 1341.49 m/z
Δ (centroid m/z difference) [7]: 0.15 m/z
centroid m/z, on-beads/off-beads [8]: 1772.03 m/z
centroid m/z, on-solution/off beads [8]: 1772.03 m/z
Δ (centroid m/z difference) [8]: −0.01 m/z
centroid m/z, on-beads/off-beads [9]: 1772.28 m/z
centroid m/z, on-solution/off beads [9]: 1772.15 m/z
Δ (centroid m/z difference) [9]: −0.13 m/z
centroid m/z, on-beads/off-beads [10]: 1284.39 m/z
centroid m/z, on-solution/off beads [10]: 1284.36 m/z
Δ (centroid m/z difference) [10]: −0.03 m/z
centroid m/z, on-beads/off-beads [11]: 1284.43 m/z
centroid m/z, on-solution/off beads [11]: 1284.32 m/z
Δ (centroid m/z difference) [11]: −0.11 m/z
centroid m/z, on-beads/off-beads [12]: 1624.98 m/z
centroid m/z, on-solution/off beads [12]: 1624.94 m/z
Δ (centroid m/z difference) [12]: −0.04 m/z
centroid m/z, on-beads/off-beads [13]: 1625.17 m/z
centroid m/z, on-solution/off beads [13]: 1625.08 m/z
Δ (centroid m/z difference) [13]: −0.10 m/z
centroid m/z, on-beads/off-beads [14]: 1261.33 m/z
centroid m/z, on-solution/off beads [14]: 1261.44 m/z
Δ (centroid m/z difference) [14]: 0.11 m/z
centroid m/z, on-beads/off-beads [15]: 1261.46 m/z
centroid m/z, on-solution/off beads [15]: 1261.24 m/z
Δ (centroid m/z difference) [15]: −0.22 m/z
centroid m/z, on-beads/off-beads [16]: 1419.65 m/z
centroid m/z, on-solution/off beads [16]: 1419.64 m/z
Δ (centroid m/z difference) [16]: −0.01 m/z
centroid m/z, on-beads/off-beads [17]: 1419.45 m/z
centroid m/z, on-solution/off beads [17]: 1419.48 m/z
Δ (centroid m/z difference) [17]: 0.02 m/z
centroid m/z, on-beads/off-beads [18]: 1962.39 m/z
centroid m/z, on-solution/off beads [18]: 1962.58 m/z
centroid m/z, on-beads/off-beads [19]: 1962.63 m/z
centroid m/z, on-solution/off beads [19]: 1962.52 m/z
Δ (centroid m/z difference) [19]: −0.10 m/z
centroid m/z, on-beads/off-beads [20]: 1560.76 m/z
centroid m/z, on-solution/off beads [20]: 1560.81 m/z
Δ (centroid m/z difference) [20]: 0.05 m/z
centroid m/z, on-beads/off-beads [21]: 1560.83 m/z
centroid m/z, on-solution/off beads [21]: 1560.81 m/z
Δ (centroid m/z difference) [21]: −0.01 m/z
centroid m/z, on-beads/off-beads [22]: 2827.99 m/z
centroid m/z, on-solution/off beads [22]: 2828.15 m/z
Δ (centroid m/z difference) [22]: 0.16 m/z
centroid m/z, on-beads/off-beads [23]: 2828.17 m/z
centroid m/z, on-solution/off beads [23]: 2827.99 m/z
Δ (centroid m/z difference) [23]: −0.18 m/z
centroid m/z, on-beads/off-beads [24]: 2498.74 m/z
centroid m/z, on-solution/off beads [24]: 2498.70 m/z
Δ (centroid m/z difference) [24]: −0.04 m/z
centroid m/z, on-beads/off-beads [25]: 2498.88 m/z
centroid m/z, on-solution/off beads [25]: 2498.68 m/z
Δ (centroid m/z difference) [25]: −0.20 m/z
centroid m/z, on-beads/off-beads [26]: 1528.75 m/z
centroid m/z, on-solution/off beads [26]: 1528.68 m/z
Δ (centroid m/z difference) [26]: −0.06 m/z
centroid m/z, on-beads/off-beads [27]: 1528.71 m/z
centroid m/z, on-solution/off beads [27]: 1528.64 m/z
Δ (centroid m/z difference) [27]: −0.07 m/z
